Results from patent publication US20260250410A1, “ANTIBODY AND USE THEREOF” (SICHUAN HUIYU PHARMACEUTICAL CO., LTD., priority 2022, published 2026).

Columns and labels:
Assay type in all cases: cell-based, human
MDA-MB-231 cells [1] = test: Endocytosis capacity of single B cell antibodies; conditions: MDA-MB-231, 2 h at 37° C., antibody 1.5 μg/mL
Procedure: The endocytosis capacity of the antibody was detected for 0.5 to 2 hours. MDA-MB-231 cells were subjected to digestion with 5 mM EDTA, and plated at 2×10^4 cells/well after cell counting. After adding an Fc blocker (Human TruStain FcX™, Biolegend, 422302) and blocking at room temperature for 10 mins, a test antibody (1.5 μg/mL) was added, and the mixture was incubated at 4° C. for 30 mins, centrifuged, and washed twice with PBS+2% FBS, then the cells were divided into four equal portions (labeled as 0 h, 0.5 h, 1 h, 2 h), cells labeled as 0.5 h, 1 h, 2 h time points were added to 200 μL of cell culture medium, and cultured at 37° C. for 0.5 h, 1 h, 2 h, respectively. Cells at 0 h point were centrifuged, a secondary antibody (PE anti-human IgG Fc Antibody, Biolegend, 410708) was added, and the mixture was incubated at 4° C. for 30 mins, centrifuged, and washed twice with PBS+2% FBS, and detection was performed using a flow cytometer. After incubation of cells labeled as 0.5 h, 1 h, and 2 h points at 37° C. was completed, a secondary antibody was added (in the same steps as those at 0 h point), Geo-MFI of the signal under the same voltage was collected as detection signal at 0 h, and antibody internalization rate was calculated according to the following equation: Internalization (%)=(Geo-MFI (0 h)-Geo-MFI (2 h))/Geo-MFI (0 h)×100%.

PC3 cells = test: Flow cytometry binding of murine monoclonal antibody to tumor cells; conditions: cells with high expression of CDCP1
Procedure: (§1) Flow cytometry was used to detect the binding capacity of antibody to tumor cells. […] 2.0×10^4 tumor cells were added per well, respectively, and 50 μL (PBS+2% FBS) were added, and after blocking at room temperature with an Fe blocker (Human TruStain FcX™, Biolegend, 422302) for 10 mins, an anti-CDCP1 murine monoclonal antibody at a final concentration of 200 nM was added. The obtained mixture was subjected to a 3-fold serial dilution across 8 concentration points, and incubated at 4° C. for 30 mins, and then incubated with a secondary antibody (PE anti-human IgG Fc Antibody, Biolegend, 410708), detection was performed using a flow cytometer.

MDA-MB-231 cells [2] = test: as above; conditions: cells with high expression of CDCP1
Procedure: as §1

Row | Molecule | Internalization MDA-MB-231 (%) (MDA-MB-231 cells [1]) | EC50 (PC3 cells) | EC50 (MDA-MB-231 cells [2])
1 | SB6: anti-CDCP1 antibody by single B cell technique; VH SEQ ID NO: 276, VL SEQ ID NO: 326 (antibody, V domains shown, SB6 heavy chain variable region; SB6 light chain variable region) VH: QGQMQQSGAELVKPGASVKLSCKTSGFTFNSSYITWLKQKPGQSLEWIAWIFAGTGGTYYNEKFTDKAQLTVDTTSSTAYMQFSSLTTEDSAIYYCARHGLGYDYWGQGTTLTVSS VL: SIVMTQTPKFLLVSAGDRVTITCKASQSVNTDVAWYQQKSGQSPKLLIYSASNRYTGVPDRFTGSGYGTDFTFTISTVQAEDLAVYFCQQDHSSPPWTFGGGTKLEIK | 63.21% |  | 
2 | SB5: anti-CDCP1 antibody by single B cell technique; VH SEQ ID NO: 275, VL SEQ ID NO: 325 (antibody, V domains shown, SB5 heavy chain variable region; SB5 light chain variable region) VH: QVQLRESGPGLVAPSQSLSITCTVSGFSLTDFGVNWVRQPPGKGLEWLGIIWANGRIEYNSALKSRLSISKDNSRSQVFLKLNSLQTDDTARYYCARDHDYDVEAMDYWGQGTSVTVSA VL: QIVLTQSPAIKSASPGEKVTMTCSASSSVIYMHWYQQKSGSSPKRWIYDTSKLASGVPVRFSGSGSGTSYSLTISTMEAEDAATYYCQQWSSYPPTFGGGTKVEIK | 15.63% |  | 
3 | SB1: anti-CDCP1 antibody by single B cell technique; VH SEQ ID NO: 271, VL SEQ ID NO: 321 (antibody, V domains shown, SB1 heavy chain variable region; SB1 light chain variable region) VH: QVQLQQSGPDLVRPGESVKISCKGSGYTFTDHAIHWVRQSHAKSLEWIGVISFSYDNTKYNQNFKGKATMTVDKSSNTAYMELARLTSEDSAIYYCARDCYGSNRGYFDYWGQGTTLTVSS VL: DIRMTQSPSSMYASLGERVTITCKASQDINRFLSWFLQRPGKAPKTLIYRANNLVEGVPSRFSGSGSGQDYSLIISNLEYEDMGIYYCLQYDEFPRTFGGGTKLEIK | 34.65% |  | 
4 | SB8: anti-CDCP1 antibody by single B cell technique; VH SEQ ID NO: 278, VL SEQ ID NO: 328 (antibody, V domains shown, SB8 heavy chain variable region; SB8 light chain variable region) VH: QVTLKESGPGILKPSQTLSLTCSFSGFSLSTSGVGVGWIRQPSGKGLEWLAHIWWDDEKYYNPSLKSHFTISKDTSRNQVFLKITSVDTADTATYYCVKEGDGMDYWGQGTSVTVSS VL: QAVVTQESALTTSPGETVTLTCRSSTGAVATSNYANWVQEKPDHLFTGLIGGTNNRVPGVPARFSGSLIGDKAALTITGAQTEDEAIYFCALWYSNHWVFGGGTKLTVL |  | 0.91 nM | 0.93 nM
5 | SB4: anti-CDCP1 antibody by single B cell technique; VH SEQ ID NO: 274, VL SEQ ID NO: 324 (antibody, V domains shown, SB4 heavy chain variable region; SB4 light chain variable region) VH: QVQLQQSGAELVRPGTSVKISCKASGYTFTNYWLGWVKQRPGHGLEWIGDNYPGDNYRNFNEKFKGKATLTTDASSSTAYLQLSSLISEDSAVYFCTRSGGSRYYTMDYWGQGTSVTVSS VL: DIVMTQAAFSNPVTLGTSASISCRSSRSLLHNNGITYLYWYLQKPGQSPQLLIYQMSNLASGVPDRFHSSGSGTDFTLSISRVEAEDVGVYYCAQNLDLPYTFGGGTKLEIK | 83.16% |  | 
6 | SB7: anti-CDCP1 antibody by single B cell technique; VH SEQ ID NO: 277, VL SEQ ID NO: 327 (antibody, V domains shown, SB7 heavy chain variable region; SB7 light chain variable region) VH: QVQLQQSGPELVSPGESVKISCKGSGYTFTDYAVHWVKQSHSKSLEWIGVKSVYYGITKYSQNFKDKATMTVDKSSSTAYMELARLTSEDSAIYYCARDSYGSSRGYFDYWGQGTTLTVSS VL: DIKMTQSPSSIYVSPGERVTITCKASQDINSFLSWFQQKPGKSPKTLIYRANRLVDGVPSRFSGSGSGQDYSLTISSLEYEDMGIYYCLQYDEFPRTFGGGTKLEIK | 31.67% |  | 
